Data taken from patent US20190375846A1 (ULTRAHUMAN ONE, published 2019).

How the values were obtained:
[1] = biological target: T1, human GITR-Fc (human, UniProt Q9Y5U5 26-161); test: direct ELISA, IgG at 1 µg/ml
T1 construct: Recombinant GITR-Fc; also called hGITR-Fc; hGITR; not shown: Fc part
T1 sequence (looked up): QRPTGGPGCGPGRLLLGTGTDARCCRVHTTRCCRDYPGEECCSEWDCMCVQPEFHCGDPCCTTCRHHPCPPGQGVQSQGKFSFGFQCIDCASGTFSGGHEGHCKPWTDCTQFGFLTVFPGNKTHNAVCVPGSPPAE
Method: (§1) Off-target homologue binding risk for mVH/mVL (FIG. 8A), VH3/VL2 (FIG. 8B) and lead engineered IgG clones G-G10 (FIG. 8C), I-C2 (FIG. 8D) and D-A6 (FIG. 8E) was examined by direct ELISA on GITR-Fc orthologs and a panel of 13 human TNFRSF and immunoglobulin superfamily proteins (as labelled on each X-axis). Binding to human, cyno and murine GITR-Fcs (h/c/mGITR-Fc) was performed at an IgG concentration of 1 μg/ml. Binding to all other proteins was performed at an IgG concentration of 10 μg/ml.
(§2) Anti-GITR antibodies were tested for polyreactivity by ELISA. Purified, recombinant, target and non-target antigens were coated in 96-well Nunc maxisorp plates at 100 ng per well in carbonate buffer, at 4° C. overnight. Plates were then washed 3× with PBS, blocked with 1% BSA in PBS, then washed 3× with PBS-Tween20. A dilution series of primary antibodies was then applied, plates were washed 3× with PBS-Tween20 followed by application of goat anti-human kappa chain-HRP 1:4,000 secondary antibody. Wells were then washed 3× with PBS-Tween20 and 2× with PBS, 100 μl TMB peroxidase substrate was added per well, the was reaction stopped by adding 100 μl 2M H₂SO₄ and absorbances were read at 450 nm. Anti-GITR antibodies were also tested for binding specificity by flow cytometry. HuT78 cells were activated by incubation with anti-CD3/anti-CD28 beads for 3 days. Naïve cells were incubated in media alone. At the end of the incubation the cells were harvested and the beads removed from the activated cells using a magnet. Cells were incubated with viability dye and then stained with anti-GITR antibodies at 4° C. […] Binding of VH1/VI1 and D-A6 IgG1 proteins were detected by subsequent incubation with a PE labelled goat anti-human IgG. Cells were fixed with 4% PFA before being stored in PBS at 4° C. overnight. Cells were analysed the next day using a BD Fortessa flow cytometer running Diva software. Analysis was performed using FlowJo software.

[2] = biological target: T2, cynomolgus monkey GITR-Fc (cynomolgus monkey (Macaca fascicularis)); test: direct ELISA, IgG at 1 µg/ml
T2 construct: also called cyno GITR-Fc; cGITR-Fc
Method: as §1, §2

[3] = biological target: T3, human GITR at the cell surface (human, UniProt Q9Y5U5 26-241); test: flow cytometry, human GITR-transfected murine blastoma cells, 10,000-13.7 ng/ml
T3 construct: whole, on cells; The cell type is named in the assay field of each row; also called human GITR+ cells; CHO-K1 human GITR+ cells
T3 sequence (looked up): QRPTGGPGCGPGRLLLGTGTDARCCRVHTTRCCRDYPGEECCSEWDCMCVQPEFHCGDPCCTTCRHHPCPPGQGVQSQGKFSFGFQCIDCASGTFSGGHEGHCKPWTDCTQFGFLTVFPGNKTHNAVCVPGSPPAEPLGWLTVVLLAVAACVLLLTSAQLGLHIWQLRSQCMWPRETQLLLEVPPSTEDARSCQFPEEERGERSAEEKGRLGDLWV
Method: Concentration-dependent binding to GITR at the cell surface was analysed using flow cytometry.

[4] = biological target: T4, hDR6-Fc (human, UniProt O75509); test: direct ELISA on coated protein, IgG at 10 µg/ml, OD 450 nm
T4 construct: recombinant Fc fusion; Member of the panel m8
T4 sequence (fusion chain, looked up): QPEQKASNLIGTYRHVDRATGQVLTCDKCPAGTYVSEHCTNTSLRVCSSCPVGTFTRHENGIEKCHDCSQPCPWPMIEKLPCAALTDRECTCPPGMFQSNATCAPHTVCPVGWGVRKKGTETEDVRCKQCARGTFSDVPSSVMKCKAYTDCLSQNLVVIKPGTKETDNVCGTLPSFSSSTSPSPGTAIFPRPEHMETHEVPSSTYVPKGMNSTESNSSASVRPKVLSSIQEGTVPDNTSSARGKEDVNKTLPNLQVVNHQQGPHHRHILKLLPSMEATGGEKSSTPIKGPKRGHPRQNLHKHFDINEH
Method: as §1, §2

[5] = biological target: T5, hDR3-Fc (human, UniProt Q93038); test: as above
T5 construct: recombinant Fc fusion; Member of the panel m8
T5 sequence (fusion chain, looked up): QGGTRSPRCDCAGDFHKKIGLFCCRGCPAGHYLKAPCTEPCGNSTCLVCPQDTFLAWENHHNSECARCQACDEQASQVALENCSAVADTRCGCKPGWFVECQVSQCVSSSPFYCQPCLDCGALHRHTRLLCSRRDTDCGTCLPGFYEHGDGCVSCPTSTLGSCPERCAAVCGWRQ
Method: as §1, §2

[6] = biological target: T1, human GITR-Fc; test: HTRF competition: unlabelled IgG1 titrated 0.003-100 µg/ml against terbium-labelled VH1/VL1 IgG on biotinylated human GITR-Fc with SA-XL665, 665/615 ratio
Method: A competition HTRF assay was established to examine epitope competition against VH1/VL1 IgG by grafted and library-derived clones. The purified VH1/VL1 IgG was labelled with terbium using a labelling kit (CisBio) per the manufacturers instructions. The final reaction mix contained biotinylated human GITR-Fc, SA-XL665 (CisBio), terbium-labelled parental […], and competitor IgG of interest, prepared as described above, in a total reaction volume of 20 μl in 1× assay buffer [50 mM sodium phosphate, pH 7.5, 400 mM potassium fluoride, and 0.1% BSA (w/v)]. Reagents were added sequentially on a MiniTrak Liquid Handling Platform (Perkin-Elmer) into 384-well low-volume black plates (Nunc). Reactions proceeded for 1 h at room temperature, and plates were subsequently read on a plate reader with excitation at 340 nm and two emission readings at 615 nm (measuring input donor fluorescence from VH1-VL1-cryptate) and 665 nm (measuring output acceptor fluorescence from SAXL665). Readings were expressed as 665 nm/615 nm ratios.
To examine the competition of the library-derived clones with the unaltered, closest-germline grafted CDRs of VH1/VL1 IgG, an Homogeneous Time Resolved Fluorescence (HTRF) assay was established. This assay incorporated terbium-labelled VH1/VL1 IgG, Biotinylated hGITR-Fc and streptavidin-XL665, in solution-phase binding. […]

| Binder | OD450 nm [1] [OD450 nm] | OD450 nm [2] [OD450 nm] | concentration at maximum MFI [3] [ng/mL] | binding result [4] | binding result [5] | IC50 (read off the curve) [6] [µg/mL] |
| --- | --- | --- | --- | --- | --- | --- |
| chimeric anti-GITR IgG1 mVH/mVL (6C8 murine v-domains) (antibody, V domains shown, Full-length human IgG1, kappa; also called GITR-mVH/mVL; chimeric IgG) VH: QVTLKESGPGILKPSQTLSLTCSFSGFSLSTSGMGVGWIRQPSGKGLEWLAHIWWDDDKYYNPSLKSQLTISKDTSRNQVFLKITSVDTADAATYYCARTRRYFPFAYWGQGTLVTVSS VL: DIVMTQSQKFMSTSVGDRVSVTCKASQNVGTNVAWYQQKPGQSPKALIYSASYRYSGVPDRFTGSGSGTDFTLTINNVHSEDLAEYFCQQYNTDPLTFGAGTKLEIK | > 3 | > 1 | ~1110 | no binding (tested: 10 µg/ml) | no binding (tested: 10 µg/ml) |  |
| D-A6 IgG1 (antibody, V domains shown, Human IgG1) VH: EVQLVESGGGLVQPGGSLRLSCAASGFSLSTSGYGVGWVRQAPGKGLEWLAHIWWDDDKYYVDSVKGRFTISRDNAKNSLYLQMNSLRAEDTAVYYCARTRQYFPFAYWGQGTLVTVSS VL: EIVLTQSPATLSLSPGERATLSCRASQSVGSNLAWYQQKPGQAPRLLIYSASYRYTGIPARFSGSGSGTDFTLTISSLEPEDFAVYYCQQYSTDPLTFGGGTKVEIK | > 3 | > 1 | ~1110 | no binding (tested: 10 µg/ml) | no binding (tested: 10 µg/ml) | ~1 |
| VH3/VL2 IgG1 (antibody, V domains shown, Human IgG1; template of the mutagenesis library; also called G-VH3/VL2; VH3 family) VH: EVQLVESGGGLVQPGGSLRLSCAASGFSLSTSGMGVGWVRQAPGKGLEWLAHIWWDDDKYYVDSVKGRFTISRDNAKNSLYLQMNSLRAEDTAVYYCARTRRYFPFAYWGQGTLVTVSS VL: EIVLTQSPATLSLSPGERATLSCRASQNVGTNVAWYQQKPGQAPRLLIYSASYRYSGIPARFSGSGSGTDFTLTISSLEPEDFAVYYCQQYNTDPLTFGGGTKVEIK | > 3 | > 1 | ~1110 | no binding (tested: 10 µg/ml) | no binding (tested: 10 µg/ml) |  |
| G-G10 IgG1 (antibody, V domains shown, Human IgG1) VH: EVQLVESGGGLVQPGGSLRLSCAASGFSLSTFGYGVGWVRQAPGKGLEWLAHIWWDDDKYYVDSVKGRFTISRDNAKNSLYLQMNSLRAEDTAVYYCARTRQYFPFAYWGQGTLVTVSS VL: EIVLTQSPATLSLSPGERATLSCRASQSVGTNLAWYQQKPGQAPRLLIYYASYRYTGIPARFSGSGSGTDFTLTISSLEPEDFAVYYCQQYSNDPLTFGGGTKVEIK | > 3 | > 1 | ~1110 | no binding (tested: 10 µg/ml) | no binding (tested: 10 µg/ml) |  |
| I-C2 IgG1 (antibody, V domains shown, Human IgG1) VH: EVQLVESGGGLVQPGGSLRLSCAASGFSLSTSGYGVGWVRQAPGKGLEWLAHIWWDDDKYYVDSVKGRFTISRDNAKNSLYLQMNSLRAEDTAVYYCARTRLYFPFAYWGQGTLVTVSS VL: EIVLTQSPATLSLSPGERATLSCRASQNVGSNLAWYQQKPGQAPRLLIYSASNRYSGIPARFSGSGSGTDFTLTISSLEPEDFAVYYCQQYSTDPLTFGGGTKVEIK | > 3 | > 1 | ~1110 | no binding (tested: 10 µg/ml) | no binding (tested: 10 µg/ml) |  |
